To fix the notation:
B1: full-length human VLCAD (very long-chain acyl-CoA dehydrogenase) lacking its cleavable leader sequence, wild type (enzyme, UniProt P49748 41-655, looked up)
chain: AGGAAQLALDKSDSHPSDALTRKKPAKAESKSFAVGMFKGQLTTDQVFPYPSVLNEEQTQFLKELVEPVSRFFEEVNDPAKNDALEMVEETTWQGLKELGAFGLQVPSELGGVGLCNTQYARLVEIVGMHDLGVGITLGAHQSIGFKGILLFGTKAQKEKYLPKLASGETVAAFCLTEPSSGSDAASIRTSAVPSPCGKYYTLNGSKLWISNGGLADIFTVFAKTPVTDPATGAVKEKITAFVVERGFGGITHGPPEKKMGIKASNTAEVFFDGVRVPSENVLGEVGSGFKVAMHILNNGRFGMAAALAGTMRGIIAKAVDHATNRTQFGEKIHNFGLIQEKLARMVMLQYVTESMAYMVSANMDQGATDFQIEAAISKIFGSEAAWKVTDECIQIMGGMGFMKEPGVERVLRDLRIFRIFEGTNDILRLFVALQGCMDKGKELSGLGSALKNPFGNAGLLLGEAGKQLRRRAGLGSGLSLSGLVHPELSRSGELAVRALEQFATVVEAKLIKHKKGIVNEQFLLQRLADGAIDLYAMVVVLSRASRSLSEGHPTAQHEKMLCDTWCIEAAARIREGMAALQSDPWQQELYRNFKSISKALVERGGVVTSNPLGF
notes: mature protein aa 1-615. numbers count on: the mature protein; pET19b vector; also called wild-type VLCAD; full-length VLCAD; source: E. coli BL21(DE3), purified (Ni-NTA, SEC)
B2: full-length human VLCAD A450P (enzyme, UniProt P49748 41-655, looked up)
chain: AGGAAQLALDKSDSHPSDALTRKKPAKAESKSFAVGMFKGQLTTDQVFPYPSVLNEEQTQFLKELVEPVSRFFEEVNDPAKNDALEMVEETTWQGLKELGAFGLQVPSELGGVGLCNTQYARLVEIVGMHDLGVGITLGAHQSIGFKGILLFGTKAQKEKYLPKLASGETVAAFCLTEPSSGSDAASIRTSAVPSPCGKYYTLNGSKLWISNGGLADIFTVFAKTPVTDPATGAVKEKITAFVVERGFGGITHGPPEKKMGIKASNTAEVFFDGVRVPSENVLGEVGSGFKVAMHILNNGRFGMAAALAGTMRGIIAKAVDHATNRTQFGEKIHNFGLIQEKLARMVMLQYVTESMAYMVSANMDQGATDFQIEAAISKIFGSEAAWKVTDECIQIMGGMGFMKEPGVERVLRDLRIFRIFEGTNDILRLFVALQGCMDKGKELSGLGSPLKNPFGNAGLLLGEAGKQLRRRAGLGSGLSLSGLVHPELSRSGELAVRALEQFATVVEAKLIKHKKGIVNEQFLLQRLADGAIDLYAMVVVLSRASRSLSEGHPTAQHEKMLCDTWCIEAAARIREGMAALQSDPWQQELYRNFKSISKALVERGGVVTSNPLGF
notes: Mutation observed in patients with VLCAD deficiency; made by site-directed mutagenesis of the pET19b construct; also called A450P variant; source: E. coli BL21(DE3), purified (Ni-NTA, SEC)
B3: full-length human VLCAD L462P (enzyme, UniProt P49748 41-655, looked up)
chain: AGGAAQLALDKSDSHPSDALTRKKPAKAESKSFAVGMFKGQLTTDQVFPYPSVLNEEQTQFLKELVEPVSRFFEEVNDPAKNDALEMVEETTWQGLKELGAFGLQVPSELGGVGLCNTQYARLVEIVGMHDLGVGITLGAHQSIGFKGILLFGTKAQKEKYLPKLASGETVAAFCLTEPSSGSDAASIRTSAVPSPCGKYYTLNGSKLWISNGGLADIFTVFAKTPVTDPATGAVKEKITAFVVERGFGGITHGPPEKKMGIKASNTAEVFFDGVRVPSENVLGEVGSGFKVAMHILNNGRFGMAAALAGTMRGIIAKAVDHATNRTQFGEKIHNFGLIQEKLARMVMLQYVTESMAYMVSANMDQGATDFQIEAAISKIFGSEAAWKVTDECIQIMGGMGFMKEPGVERVLRDLRIFRIFEGTNDILRLFVALQGCMDKGKELSGLGSALKNPFGNAGLLPGEAGKQLRRRAGLGSGLSLSGLVHPELSRSGELAVRALEQFATVVEAKLIKHKKGIVNEQFLLQRLADGAIDLYAMVVVLSRASRSLSEGHPTAQHEKMLCDTWCIEAAARIREGMAALQSDPWQQELYRNFKSISKALVERGGVVTSNPLGF
notes: Mutation observed in patients with VLCAD deficiency; made by site-directed mutagenesis of the pET19b construct; also called L462P mutant; source: E. coli BL21(DE3), purified (Ni-NTA, SEC)

The data set deals with the molecule itself. As to the kind of experiment: SEC; Superdex 200 10/300 GL, 4 °C, 250 mM NaCl, 50 mM Tris, pH 8.0; purified VLCAD proteins; peak at ~150 kDa.
Broadly, the stoichiometry N is the number of molecules, sites or subunits per partner or assembly. B1: the “stoichiometry N” value is 2.

Take B2: the “stoichiometry N” value came out at 2.

With B3, the “stoichiometry N” value turned out to be 2.

Values taken from publication PMC9237092, “Structural basis for defective membrane targeting of mutant enzyme in human VLCAD deficiency” (Nature Communications, 2022).
